The source of these data is patent publication US20200216522A1.

Where “and” joins values, the source holds several entries; their conditions need not be identical. Equal entries are not always repeated.

For assay [1], the target named is soluble Tau in control human brain lysate (human) (UniProt P10636). In words: ELISA on coated brain lysate, antibody 5 nM.
Assay [2] has as its target soluble Tau in Alzheimer's disease human brain lysate (human) (UniProt P10636). In words: ELISA on coated brain lysate, antibody 5 nM.
Assay [3] has as its target soluble Tau in control human brain lysate (human) (UniProt P10636). In words: ELISA on coated brain lysate, antibody 0.5 nM.
Assay [4] has as its target soluble Tau in Alzheimer's disease human brain lysate (human) (UniProt P10636). The assay can be described thus: ELISA on coated brain lysate, antibody 0.5 nM.

soluble Tau in Alzheimer's disease human brain lysate (human), sequence (P10636 other isoform, or with tags, fused parts or gaps limits assumed): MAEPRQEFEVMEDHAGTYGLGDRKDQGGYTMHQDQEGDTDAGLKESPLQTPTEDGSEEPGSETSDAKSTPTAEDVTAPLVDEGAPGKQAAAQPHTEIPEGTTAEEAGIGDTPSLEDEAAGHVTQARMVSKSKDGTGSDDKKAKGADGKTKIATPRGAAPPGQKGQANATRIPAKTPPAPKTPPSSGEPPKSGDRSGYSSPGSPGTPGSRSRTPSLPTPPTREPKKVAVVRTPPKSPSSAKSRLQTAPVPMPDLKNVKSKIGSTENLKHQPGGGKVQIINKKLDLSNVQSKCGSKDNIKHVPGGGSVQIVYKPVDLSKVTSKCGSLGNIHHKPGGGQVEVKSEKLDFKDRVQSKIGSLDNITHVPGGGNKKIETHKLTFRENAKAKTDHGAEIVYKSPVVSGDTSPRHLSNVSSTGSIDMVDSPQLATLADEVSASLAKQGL
soluble Tau in control human brain lysate (human), sequence (P10636 other isoform, or with tags, fused parts or gaps limits assumed): as above

For the substance anti-RSV antibody (negative control), the ELISA signal in assay [1] is 0.151 and 0.107 and 0.11; in assay [2], 0.108 and 0.107 and 0.117; in assay [3], 0.147 and 0.106 and 0.108; in assay [4] it was 0.108 and 0.117 and 0.115.
